# Data: patent publication US20260265379A1
# B1: bsAb025 (bispecific antibody)
# heavy: QVQLVQSGVEVKKPGASVKVSCKASGYTFTNYYMYWVRQAPGQGLEWMGGINPSNGGTNFNEKFKNRVTLTTDSSTTTAYMELKSLQFDDTAVYYCARRDYRFDMGFDYWGQGTTVTVSSASTKGPSVFPLAPSSKSTSGGTAALGCLVKDYFPEPVTVSWNSGALTSGVHTFPAVLQSSGLYSLSSVVTVPSSSLGTQTYICNVNHKPSNTKVDKKVEPKSCDKTHTGGSSGSGSGSTGTSSSGTGTSAGTTGTSASTSGSGSGGGGGSGGGGSAGGEIVLTQSPATLSLSPGERATLSCRASKGVSTSGYSYLHWYQQKPGQAPRLLIYLASYLESGVPARFSGSGSGTDFTLTISSLEPEDFAVYYCQHSRDLPLTFGGGTKVEIKRTVAAPSVFIFPPSDEQLKSGTASVVCLLNNFYPREAKVQWKVDNALQSGNSQESVTEQDSKDSTYSLSSTLTLSKADYEKHKVYACEVTHQGLSSPVTKSFNRGECGGGGSGGGGSGGGGSGGGGSQVQLVQSGAEVKKPGASVKLSCKASGYIFTRYYMYWVKQRPGQGLEWIGEINPNNGGTKFNEKFKNRATLTVDKSISTAYMELSRLRSDDTAVYYCSREDDYDGTPFAMDYWGQGTLVTVSSASTKGPSVFPLAPSSKSTSGGTAALGCLVKDYFPEPVTVSWNSGALTSGVHTFPAVLQSSGLYSLSSVVTVPSSSLGTQTYICNVNHKPSNTKVDKRVEPKSCDKTHTCPPCPAPEFEGGPSVFLFPPKPKDTLMISRTPEVTCVVVDVSHEDPEVKFNWYVDGVEVHNAKTKPREEQYNSTYRVVSVLTVLHQDWLNGKEYKCKVSNKALPASIEKTISKAKGQPREPQVYTLPPSREEMTKNQVSLTCLVKGFYPSDIAVEWESNGQPENNYKTTPPVLDSDGSFFLYSKLTVDKSRWQQGNVFSCSVMHEALHNHYTQKSLSLSPG
# light: not shown
# B2: bsAb018 (bispecific antibody)
# heavy: EIVLTQSPATLSLSPGERATLSCRASKGVSTSGYSYLHWYQQKPGQAPRLLIYLASYLESGVPARFSGSGSGTDFTLTISSLEPEDFAVYYCQHSRDLPLTFGGGTKVEIKGGGGSGGGGSGGGGSGGGGSQVQLVQSGVEVKKPGASVKVSCKASGYTFTNYYMYWVRQAPGQGLEWMGGINPSNGGTNFNEKFKNRVTLTTDSSTTTAYMELKSLQFDDTAVYYCARRDYRFDMGFDYWGQGTTVTVSSGGGGSGGGGSGGGGSGGGGSQVQLVQSGAEVKKPGASVKLSCKASGYIFTRYYMYWVKQRPGQGLEWIGEINPNNGGTKFNEKFKNRATLTVDKSISTAYMELSRLRSDDTAVYYCSREDDYDGTPFAMDYWGQGTLVTVSSASTKGPSVFPLAPSSKSTSGGTAALGCLVKDYFPEPVTVSWNSGALTSGVHTFPAVLQSSGLYSLSSVVTVPSSSLGTQTYICNVNHKPSNTKVDKRVEPKSCDKTHTCPPCPAPEFEGGPSVFLFPPKPKDTLMISRTPEVTCVVVDVSHEDPEVKFNWYVDGVEVHNAKTKPREEQYNSTYRVVSVLTVLHQDWLNGKEYKCKVSNKALPASIEKTISKAKGQPREPQVYTLPPSREEMTKNQVSLTCLVKGFYPSDIAVEWESNGQPENNYKTTPPVLDSDGSFFLYSKLTVDKSRWQQGNVFSCSVMHEALHNHYTQKSLSLSPG
# light: not shown
# B3: bsAb033 (bispecific antibody, not shown: small tags and cut ends)
# heavy (part 1 of 2): QVQLVQSGAEVKKPGASVKLSCKASGYIFTRYYMYWVKQRPGQGLEWIGEINPNNGGTKFNEKFKNRATLTVDKSISTAYMELSRLRSDDTAVYYCSREDDYDGTPFAMDYWGQGTLVTVSS
# heavy (part 2 of 2): GGGGSGGGGSGGGGSGGGGSQVQLVQSGVEVKKPGASVKVSCKASGYTFTNYYMYWVRQAPGQGLEWMGGINPSNGGTNFNEKFKNRVTLTTDSSTTTAYMELKSLQFDDTAVYYCARRDYRFDMGFDYWGQGTTVTVSSGGGGSGGGGSGGGGSGGGGSEIVLTQSPATLSLSPGERATLSCRASKGVSTSGYSYLHWYQQKPGQAPRLLIYLASYLESGVPARFSGSGSGTDFTLTISSLEPEDFAVYYCQHSRDLPLTFGGGTKVEIK
# heavy: B3 heavy (part 1 of 2)
# light: not shown
# B4: bsAb049 (bispecific antibody, not shown: small tags and cut ends)
# heavy 1: QVQLVQSGVEVKKPGASVKVSCKASGYTFTNYYMYWVRQAPGQGLEWMGGINPSNGGTNFNEKFKNRVTLTTDSSTTTAYMELKSLQFDDTAVYYCARRDYRFDMGFDYWGQGTTVTVSSGGGGSGGGGSGGGGSGGGGSEIVLTQSPATLSLSPGERATLSCRASKGVSTSGYSYLHWYQQKPGQAPRLLIYLASYLESGVPARFSGSGSGTDFTLTISSLEPEDFAVYYCQHSRDLPLTFGGGTKVEIKGGGGSGGGGSGGGGSGGGGSQVQLVQSGAEVKKPGASVKLSCKASGYIFTRYYMYWVKQRPGQGLEWIGEINPNNGGTKFNEKFKNRATLTVDKSISTAYMELSRLRSDDTAVYYCSREDDYDGTPFAMDYWGQGTLVTVSS
# heavy 2: B3 heavy (part 1 of 2)
# light: not shown
# B5: bsAb047 (bispecific antibody, not shown: small tags and cut ends)
# heavy 1: EIVLTQSPATLSLSPGERATLSCRASKGVSTSGYSYLHWYQQKPGQAPRLLIYLASYLESGVPARFSGSGSGTDFTLTISSLEPEDFAVYYCQHSRDLPLTFGGGTKVEIKGGGGSGGGGSGGGGSGGGGSQVQLVQSGVEVKKPGASVKVSCKASGYTFTNYYMYWVRQAPGQGLEWMGGINPSNGGTNFNEKFKNRVTLTTDSSTTTAYMELKSLQFDDTAVYYCARRDYRFDMGFDYWGQGTTVTVSSGGGGSGGGGSGGGGSGGGGSQVQLVQSGAEVKKPGASVKLSCKASGYIFTRYYMYWVKQRPGQGLEWIGEINPNNGGTKFNEKFKNRATLTVDKSISTAYMELSRLRSDDTAVYYCSREDDYDGTPFAMDYWGQGTLVTVSS
# heavy 2: B3 heavy (part 1 of 2)
# light: not shown
# B6: bsAb038 (bispecific antibody, not shown: small tags and cut ends)
# heavy (part 1 of 2): B3 heavy (part 1 of 2)
# heavy (part 2 of 2): GGGGSGGGGSGGGGSGGGGSEIVLTQSPATLSLSPGERATLSCRASKGVSTSGYSYLHWYQQKPGQAPRLLIYLASYLESGVPARFSGSGSGTDFTLTISSLEPEDFAVYYCQHSRDLPLTFGGGTKVEIKGGGGSGGGGSGGGGSGGGGSQVQLVQSGVEVKKPGASVKVSCKASGYTFTNYYMYWVRQAPGQGLEWMGGINPSNGGTNFNEKFKNRVTLTTDSSTTTAYMELKSLQFDDTAVYYCARRDYRFDMGFDYWGQGTTVTVSS
# heavy: B3 heavy (part 1 of 2)
# light: not shown
# B7: bsAb052 (bispecific antibody, not shown: small tags and cut ends; a dimerising Fc or GST)
# heavy (part 1 of 2): B3 heavy (part 1 of 2)
# heavy (part 2 of 2): B3 heavy (part 2 of 2)
# heavy: B3 heavy (part 2 of 2)
# light: not shown
# B8: bsAb026 (bispecific antibody)
# heavy: QVQLVQSGAEVKKPGASVKLSCKASGYIFTRYYMYWVKQRPGQGLEWIGEINPNNGGTKFNEKFKNRATLTVDKSISTAYMELSRLRSDDTAVYYCSREDDYDGTPFAMDYWGQGTLVTVSSASTKGPSVFPLAPSSKSTSGGTAALGCLVKDYFPEPVTVSWNSGALTSGVHTFPAVLQSSGLYSLSSVVTVPSSSLGTQTYICNVNHKPSNTKVDKRVEPKSCDKTHTCPPCPAPEFEGGPSVFLFPPKPKDTLMISRTPEVTCVVVDVSHEDPEVKFNWYVDGVEVHNAKTKPREEQYNSTYRVVSVLTVLHQDWLNGKEYKCKVSNKALPASIEKTISKAKGQPREPQVYTLPPSREEMTKNQVSLTCLVKGFYPSDIAVEWESNGQPENNYKTTPPVLDSDGSFFLYSKLTVDKSRWQQGNVFSCSVMHEALHNHYTQKSLSLSPGGGGGSGGGGSGGGGSGGGGSQVQLVQSGVEVKKPGASVKVSCKASGYTFTNYYMYWVRQAPGQGLEWMGGINPSNGGTNFNEKFKNRVTLTTDSSTTTAYMELKSLQFDDTAVYYCARRDYRFDMGFDYWGQGTTVTVSSASTKGPSVFPLAPSSKSTSGGTAALGCLVKDYFPEPVTVSWNSGALTSGVHTFPAVLQSSGLYSLSSVVTVPSSSLGTQTYICNVNHKPSNTKVDKKVEPKSCDKTHTGGSSGSGSGSTGTSSSGTGTSAGTTGTSASTSGSGSGGGGGSGGGGSAGGEIVLTQSPATLSLSPGERATLSCRASKGVSTSGYSYLHWYQQKPGQAPRLLIYLASYLESGVPARFSGSGSGTDFTLTISSLEPEDFAVYYCQHSRDLPLTFGGGTKVEIKRTVAAPSVFIFPPSDEQLKSGTASVVCLLNNFYPREAKVQWKVDNALQSGNSQESVTEQDSKDSTYSLSSTLTLSKADYEKHKVYACEVTHQGLSSPVTKSFNRGEC
# light: not shown
# B9: bsAb022 (bispecific antibody)
# heavy: QVQLVQSGVEVKKPGASVKVSCKASGYTFTNYYMYWVRQAPGQGLEWMGGINPSNGGTNFNEKFKNRVTLTTDSSTTTAYMELKSLQFDDTAVYYCARRDYRFDMGFDYWGQGTTVTVSSGGGGSGGGGSGGGGSGGGGSEIVLTQSPATLSLSPGERATLSCRASKGVSTSGYSYLHWYQQKPGQAPRLLIYLASYLESGVPARFSGSGSGTDFTLTISSLEPEDFAVYYCQHSRDLPLTFGGGTKVEIKGGGGSGGGGSGGGGSGGGGSQVQLVQSGAEVKKPGASVKLSCKASGYIFTRYYMYWVKQRPGQGLEWIGEINPNNGGTKFNEKFKNRATLTVDKSISTAYMELSRLRSDDTAVYYCSREDDYDGTPFAMDYWGQGTLVTVSSASTKGPSVFPLAPSSKSTSGGTAALGCLVKDYFPEPVTVSWNSGALTSGVHTFPAVLQSSGLYSLSSVVTVPSSSLGTQTYICNVNHKPSNTKVDKRVEPKSCDKTHTCPPCPAPEFEGGPSVFLFPPKPKDTLMISRTPEVTCVVVDVSHEDPEVKFNWYVDGVEVHNAKTKPREEQYNSTYRVVSVLTVLHQDWLNGKEYKCKVSNKALPASIEKTISKAKGQPREPQVYTLPPSREEMTKNQVSLTCLVKGFYPSDIAVEWESNGQPENNYKTTPPVLDSDGSFFLYSKLTVDKSRWQQGNVFSCSVMHEALHNHYTQKSLSLSPG
# light: not shown
# Target: BTN3A expressed at the cell surface (human), O00481
# Sequence (O00481 30-513): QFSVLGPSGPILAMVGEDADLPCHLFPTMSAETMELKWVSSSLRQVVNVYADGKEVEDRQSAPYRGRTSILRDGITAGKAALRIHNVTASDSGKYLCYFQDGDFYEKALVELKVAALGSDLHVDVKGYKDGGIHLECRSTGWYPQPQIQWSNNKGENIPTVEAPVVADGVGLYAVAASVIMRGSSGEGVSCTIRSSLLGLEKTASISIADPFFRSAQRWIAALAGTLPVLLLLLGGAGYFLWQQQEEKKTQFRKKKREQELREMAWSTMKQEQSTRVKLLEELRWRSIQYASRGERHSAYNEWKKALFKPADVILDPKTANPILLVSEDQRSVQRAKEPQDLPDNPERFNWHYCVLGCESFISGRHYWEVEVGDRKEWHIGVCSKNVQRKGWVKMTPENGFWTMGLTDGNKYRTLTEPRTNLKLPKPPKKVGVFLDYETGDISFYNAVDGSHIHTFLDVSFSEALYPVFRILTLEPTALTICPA
# Experiment: cell-based or functional assay
Binder,Jurkat-Vy9Vo2 TCR MOP activation at 0.5 nM (fold-change to medium),Jurkat-Vy9Vo2 TCR MOP activation at 5 nM (fold-change to medium)
B1,1,1.2
B2,1.1,1.7
B3,7.8,7.1
B4,5.9,6.2
B5,4,5.8
B6,8.5,7.2
B7,4.2,4.5
B8,2.9,1.4
B9,1.3,1.4
